Biological target: T1, human LILRB1 protein (LILRB1-His, RnD systems Cat. No. 8989-T2) (human, UniProt Q8NHL6 24-458, limits assumed)
T1 construct: Bought protein; also called LILRB1 antigen; the antigen, LILRB1; not shown: His tag
Experiment: SPR, Biacore T200; antibody captured by anti-human IgG (Fc), LILRB1-His injected 25-400 nM
Experimental: The binding affinities of the 19 antibodies, which were selected in Example 3, to the antigen, LILRB1, were measured using Biacore T200 (GE healthcare). An anti-human IgG (Fc) antibody (GE healthcare, Cat. No. BR-1008-39, final concentration of 25 μg/mL) was flowed at the flow rate of 5 μL/min for 360 seconds to be immobilized at 5000-7000 RU on Series S Sensor Chip CM5 (GE healthcare, Cat. No. BR-1005-30) using Amine Coupling Kit (GE healthcare, Cat. No. BR-1000-50).

T1 sequence (Q8NHL6 24-458 limits assumed): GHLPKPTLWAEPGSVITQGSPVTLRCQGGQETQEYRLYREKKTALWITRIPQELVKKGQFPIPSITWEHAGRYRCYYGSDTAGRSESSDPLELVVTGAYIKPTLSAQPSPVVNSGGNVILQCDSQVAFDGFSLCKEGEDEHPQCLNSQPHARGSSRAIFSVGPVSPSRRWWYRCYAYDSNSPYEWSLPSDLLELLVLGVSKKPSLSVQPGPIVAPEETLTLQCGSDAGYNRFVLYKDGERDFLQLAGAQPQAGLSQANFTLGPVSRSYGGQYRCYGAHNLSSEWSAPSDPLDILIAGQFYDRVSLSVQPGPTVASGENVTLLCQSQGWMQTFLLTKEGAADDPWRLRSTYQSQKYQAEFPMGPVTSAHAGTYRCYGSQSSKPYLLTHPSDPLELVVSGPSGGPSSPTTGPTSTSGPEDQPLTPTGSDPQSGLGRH

Kd: 24.1 nM | koff: 0.000298 s⁻¹ | kon: 12300 M⁻¹ s⁻¹
B1: anti-LILRB1 antibody No. 10 (antibody, human IgG4 S228P, kappa, F234A L235A, V domains shown)
VH: QVQLVQSGAEVKKPGSSVKVSCKASGGTFSSHYMHWVRQAPGQGLEWMGWISPYLGSTNYAQKFQGRVTITADESTSTAYMELSSLRSEDTAVYYCARDETGSTYGAFDYWGQGTLVTVSS
VL: DIQMTQSPSSLSASVGDRVTITCRASQSISNYLNWYQQKPGKAPKLLIYAASNLQSGVPSRFSGSGSGTDFTLTISSLQPEDFATYYCQQSYSFPFTFGQGTKVEIKR
notes: Human IgG4 / kappa, expressed in ExpiCHO-S cells; also called clone 10
